Here are results for 2 molecules from paper PMC2873993, “Comparative Therapeutic Effects of Velaglucerase Alfa and Imiglucerase in a Gaucher Disease Mouse Model” (PLoS ONE, 2010).

Numbering of substitutions follows the chain as printed. Read-outs that look alike come from different tables or passages of the source.

Series [1] is described as follows: GCase activity assay with NBD-GC substrate. It counts as biochemical. Conditions: mean ± SE, n = 10. As to the method:
Vela and Imig were compared for kinetic properties as described. Briefly, the standard GCase activity assay contained final concentrations of 50 mM citrate/phosphate, pH 5.5, 0.25% TC, 0.25% TX, and 4 mM 4MU-Glc in 200 µl. The reactions were stopped after incubation (30–60 min, 37°C) using 0.9 M ethylenediamine, pH 11.0 (100 µl). Standard curves for 4-MU fluorescence yield were generated for each assay with Ex/Em 460/515 nm (Molecular Dynamics SpectraMax GeminXS spectrofluorometer). […] For the reversible competitive inhibitors, Ki was calculated from IC50 = Ki (1+ [I]/[Km]). The IC50 or Ki values for various inhibitors (dNM and its derivatives, CBE, CS, IFG, DNPFG) were determined using 4MU-Glc as substrate. Activities with the NBD-GC substrate were as described. Enzyme assays with saposin C (0–500 nM/0.5 µM BPS) and BPS (0–2 µM) were as described, [40]. Saposin C was expressed in E. coli and purified as described. […] Protease susceptibilities of the two GCases were evaluated by cathepsin D (1–2 µM) digestion in 25 mM sodium acetate, pH 4.8, 50 mM NaCl, 1.25 mM EDTA, 1.25 mM DTT using 200 ng of Vela or Imig at 37°C for 4 h. […] The amounts of intact enzyme were determined from density measurements on immunoblots and were compared to the initial amounts. […]

The next series has as its system cathepsin D. The series is described as follows: Protease susceptibility to cathepsin D digestion. It counts as biochemical. Conditions: for degradation by cathepsin D after 4 h: cathepsin D 1 µg/ml; for degradation by cathepsin D within 4 h: cathepsin D 2 µg/ml. As to the method:
Vela and Imig were compared for kinetic properties as described. Briefly, the standard GCase activity assay contained final concentrations of 50 mM citrate/phosphate, pH 5.5, 0.25% TC, 0.25% TX, and 4 mM 4MU-Glc in 200 µl. The reactions were stopped after incubation (30–60 min, 37°C) using 0.9 M ethylenediamine, pH 11.0 (100 µl). Standard curves for 4-MU fluorescence yield were generated for each assay with Ex/Em 460/515 nm (Molecular Dynamics SpectraMax GeminXS spectrofluorometer). […] For the reversible competitive inhibitors, Ki was calculated from IC50 = Ki (1+ [I]/[Km]). The IC50 or Ki values for various inhibitors (dNM and its derivatives, CBE, CS, IFG, DNPFG) were determined using 4MU-Glc as substrate. Activities with the NBD-GC substrate were as described. Enzyme assays with saposin C (0–500 nM/0.5 µM BPS) and BPS (0–2 µM) were as described, [40]. Saposin C was expressed in E. coli and purified as described. For thermostability assessments, equal amounts of Vela and Imig activities were added to 50 mM citrate/phosphate, pH 7.4, with or without human/mouse serum, and incubated for 0–240 min at 25 or 37°C. The pH optimum profiles were developed using 50 mM citrate/phosphate, pH 4.4–7.2. […] All assays were conducted in triplicate and repeated at least twice. The amounts of intact enzyme were determined from density measurements on immunoblots and were compared to the initial amounts. The ratios of intact enzyme with and without cathepsin D were used as indicators of the enzyme's proteolytic susceptibility.

Series [2] relates to 9 V/null mice. The series is described as follows: Injection-related deaths. It counts as in vivo, mouse. The settings on record: 60 U/kg once a week for 8 weeks. As to the method: With additional injections, IgG positivity increased in all dosing groups and several mice died. With the 5 or 15 U/kg/wk doses only a few mice died, whereas with 60 U/kg/wk doses, 9/42 Vela-injected and 20/59 Imig-injected mice died following injections during the 4- to 8-wk period (Table 5). Prior to death, these mice became immobile and their lips/tails became cyanotic. Most mice died within 30 to 60 min post-injection. However, placing treated mice in an oxygen chamber for 20 to 30 min after injection led to the survival of most of the animals. The mice that succumbed were immediately dissected, and sera were analyzed for IgE titers and histology. […] Total serum IgE levels from these mice injected with Vela or Imig were 46.4 to 234.9 ng/ml (n = 3) or 115.8 to 239.6 ng/ml (n = 3), respectively (p = 0.3626). In comparison, saline-injected 9 V/null serum values were 6.8 to 8.8 ng/ml (n = 6) (Fig. 7B).
Mice were anesthetized with isoflurane.

The test system of series [3] is 9 V/null mice. Briefly: Mouse anti-human GCase IgG ELISA.
For series [4] the following is noted: mouse, in vivo, iv.
The conditions of series [5]: mouse, in vivo.
Series [6] relates to 9 V/null mice. Conditions: mouse, in vivo.

B1: velaglucerase alfa (protein)
chain: ARPCIPKSFGYSSVVCVCNATYCDSFDPPTFPALGTFSRYESTRSGRRMELSMGPIQANHTGTGLLLTLQPEQKFQKVKGFGGAMTDAAALNILALSPPAQNLLLKSYFSEEGIGYNIIRVPMASCDFSIRTYTYADTPDDFQLHNFSLPEEDTKLKIPLIHRALQLAQRPVSLLASPWTSPTWLKTNGAVNGKGSLKGQPGDIYHQTWARYFVKFLDAYAEHKLQFWAVTAENEPSAGLLSGYPFQCLGFTPEHQRDFIARDLGPTLANSTHHNVRLLMLDDQRLLLPHWAKVVLTDPEAAKYVHGIAVHWYLDFLAPAKATLGETHRLFPNTMLFASEACVGSKFWEQSVRLGSWDRGMQYSHSIITNLLYHVVGWTDWNLALNPEGGPNWVRNFVDSPIIVDITKDTFYKQPMFYHLGHFSKFIPEGSQRVGLVASQKNDLDAVALMHPDGSAVVVVLNRSSKDVPLTIKDPAVGFLETISPGYSIHTYLWRRQ
modifications: N-linked oligosaccharides with higher α-mannosyl content (predominant number of mannoses is 9)
Take B1: the “GCase activity, NBD-GC” value in series [1] was 1,321,057±67,237 nmole/h/mg. Moreover, in the series with cathepsin D, the “degradation by cathepsin D after 4 h” value is on record as 72–76% and the “degradation by cathepsin D within 4 h” value was “completely degraded”. In addition, in the series with 9 V/null mice [2] (No-oxygen), the “Death (%) of total injected mice” value was found to be 22.6% and the “Death, number of mice” value is given as 7. Besides, in the series on 9 V/null mice [2] (Oxygen chamber minimum 20 min), the “Death (%) of total injected mice” value is 18.2% and the “Death, number of mice” value was 2. Moreover, in the series on 9 V/null mice [2] (Total number), the “Death (%) of total injected mice” value came out at 21% and the “Death, number of mice” value was 9. The “serum anti-GCase IgG signals” value in the series on 9 V/null mice [3] (5 or 15 U/kg/wk, each bleed) is “at background or very low levels”. Also, in the series with 9 V/null mice [3] (60 U/kg/wk, by the 4th injection), the “injected mice with increased serum anti-GCase IgG” value is above 50%. Moreover, the “increase of serum anti-GCase IgG levels above background” value in the series on 9 V/null mice [3] (60 U/kg/wk, by the 4th injection, at ∼3×10^3 dilution) is on record as around 3 fold.

B2: imiglucerase (protein)
chain: B1 chain with R495H
modifications: short N-linked oligosaccharide chains with ~3 exposed α-mannosyl residues
Consider B2, for which, in series [1], the “GCase activity, NBD-GC” value is 1,191,610±56,390 nmole/h/mg. In the series with cathepsin D, the “degradation by cathepsin D after 4 h” value is given as 72–76% and the “degradation by cathepsin D within 4 h” value was “completely degraded”. In the series on 9 V/null mice [2] (No-oxygen), the “Death (%) of total injected mice” value was found to be 48.4% and the “Death, number of mice” value was 15. In the series on 9 V/null mice [2] (Oxygen chamber minimum 20 min), the “Death (%) of total injected mice” value is listed as 17.9% and the “Death, number of mice” value stood at 5. Also, in the series with 9 V/null mice [2] (Total number), the “Death (%) of total injected mice” value stood at 34% and the “Death, number of mice” value was 20. Further, in series [4], the “serum activity by 20 min post-injection” value is given as < 10 % of the 2-min values, the “t½ of GCase CRIM disappearance in serum” value is around 0.217 h and the “t½ of clearance of GCase activity in serum” value fell in the range of 8 to 11 min. Also, the “catalytic value (CRIM-SA) of intact enzyme remaining in serum by 20 min” value in series [4] (20 min) was < 10 % of its original catalytic value. The “time liver activity remained at ≥WT level” value in series [5] was around 180 min. In series [5] (iv), the “decrease of spleen enzyme activity by 40 min” value is recorded as around 40%; the “enzyme localized to the liver interstitial cells” value is listed as at least 80%; the “enzyme recovered in spleens and lungs” value is on record as below 5%; the “injected enzyme recovered from the liver” value is at least 60%. Besides, in series [5] (iv), the “peak spleen activity lower than in 20-wk mice” value was 2- to 3 fold, the “t½ of CRIM disappearance in liver” value lay within 1.5 to 1.83 h, the “t½ of CRIM levels in spleen” value is around 1 h and the “t½ of GCase activity disappearance in liver” value is around 1.67 h. In addition, in series [5] (iv), the “t½ of GCase protein disappearance in spleen” value fell in the range of 1.0 to 1.5 h and the “t½ of activity disappearance in liver” value is listed as “about 60 min”. Moreover, the “injected mice with increased serum anti-GCase IgG” value in the series on 9 V/null mice [6] is above 50%.
